The text below walks through data of patent publication US20240376195A1 (BEIGENE, published 2024).

The target of one experiment is T1, NKp30-mIgG2a (human; mouse, UniProt O14931 19-135).
T1 construct: also called soluble NKp30; NKp30-mIgG2a fusion protein; not shown: Fc domain of mouse IgG2a, fused to the C-terminus of the NKp30 ECD
T1 sequence: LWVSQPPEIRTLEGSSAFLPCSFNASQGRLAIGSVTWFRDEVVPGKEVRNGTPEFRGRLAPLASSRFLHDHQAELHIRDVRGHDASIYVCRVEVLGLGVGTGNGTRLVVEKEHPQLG
Nature of the experiment: flow cytometry blocking assay; binding of NKp30-mIgG2a to B7-H6 on HCT116/B7-H6 cells in the presence of serially diluted antibody. The procedure:
A schematic diagram showing the inhibition of NKp30/B7-H6 interactions by anti-NKp30 Ab. The binding of soluble NKp30 (NKp30-mIgG2a fusion protein) to B7-H6-expressing HCT116 cells (HCT116/B7-H6) was determined by flow cytometry. The blockade of NKp30/B7-H6 interaction was quantitatively measured by adding serially diluted BGA1833/IgG1. Results are shown in mean±SD of duplicates.
(Joyce et al., 2011 PNAS 108:6223-6228). […] In addition, these two residues were previously determined to be important for NKp30/B7-H6 interaction in a structural study (Li et al., J Exp Med. 2011 208:703-714). […] For this assay, a B7-H6 stably transduced cell line HCT116/B7-H6 was incubated with NKp30-mIgG2a in the presence of serially diluted BGA1833, followed by detection with […].
A general note: In flow cytometry, cells or beads pass a laser one at a time.

The target of experiment [1] is T2, NKp30 (form in the assay not stated) (UniProt O14931 19-135, limits assumed).
T2 construct: It is inferred from BGA1831 being an anti-NKp30 antibody
T2 sequence (looked up): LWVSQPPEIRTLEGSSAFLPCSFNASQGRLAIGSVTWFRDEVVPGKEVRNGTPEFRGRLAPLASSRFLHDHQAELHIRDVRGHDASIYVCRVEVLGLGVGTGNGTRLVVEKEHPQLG
Nature of the experiment: flow cytometry, y axis NKp30 (MFI); cells not named in the legend or on the sheet.

Experiment [2] concerns the target T3, his-tagged human NKp30 (human, UniProt O14931 19-135).
T3 construct: Analyte of the SPR assay; not shown: his tag
T3 sequence: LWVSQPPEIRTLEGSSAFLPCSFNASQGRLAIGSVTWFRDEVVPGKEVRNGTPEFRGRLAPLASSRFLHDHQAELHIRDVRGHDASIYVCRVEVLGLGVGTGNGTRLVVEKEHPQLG
Nature of the experiment: SPR (BIAcore T-200), antibody captured by anti-mouse IgG, his-tagged human NKp30 as analyte. The text has this:
The NKp30 antibodies with high binding activities in ELISA and FACS, as well as with potent functional activities in the cell-based assays (described in Example 1 above) were characterized for their binding kinetics by SPR assays using BIAcore™ T-200 (GE Life Sciences). Briefly, an anti-mouse IgG antibody was immobilized on an activated CM5 biosensor chip (Cat. No.: BR100530, GE Life Sciences). Purified NKp30 murine antibodies were flowed over the chip surface and captured by the anti-mouse IgG antibody. Then a serial dilution (0.098 nM to 25 nM) of his-tagged human NKp30 was flowed over the chip surface and changes in surface plasmon resonance signals were analyzed to calculate the association rates (kₒₙ) and dissociation rates (koff) by using the one-to-one Langmuir binding model (BIA Evaluation Software, GE Life Sciences). The equilibrium dissociation constant (KD) was calculated as the ratio koff/kₒₙ.
On the technique in general: In SPR one partner is held on a chip, and binding of the other changes the refractive index at the surface.

Experiment [3] has as its target T3, his-tagged human NKp30. Kind of experiment: SPR, antibody captured on anti-human Fc surface; NKp30 analyte not named in Example 4. The source says: Further engineered versions of humanized monoclonal antibodies were derived from the mutation process described as above and characterized in detail. […] For affinity determination, antibodies were captured by anti-human Fc surface, and used in the affinity assay based on surface plasmon resonance (SPR) technology. All the humanization antibodies shown above were also confirmed for functional activities on primary human immune cells isolated from healthy donors (described in Example 7 below).

Experiment [4] has as its target T4, full-length human NKp30 on NK92MI cells (human, UniProt O14931 19-201).
T4 construct: Full-length human NKp30 over-expressed on NK92MI cells; also called huNKp30; native NKp30
T4 sequence: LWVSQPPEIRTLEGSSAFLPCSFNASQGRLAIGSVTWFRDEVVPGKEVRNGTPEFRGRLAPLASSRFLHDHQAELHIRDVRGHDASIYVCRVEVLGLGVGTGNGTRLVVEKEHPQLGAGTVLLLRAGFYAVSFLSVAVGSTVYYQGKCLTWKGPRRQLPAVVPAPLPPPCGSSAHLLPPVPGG
Kind of experiment: flow cytometry on live NK92MI cells over-expressing human NKp30, goat anti-human IgG detection. The procedure: To evaluate the binding activity of anti-NKp30 antibodies to native NKp30 on living cells, NK92MI cells were transfected to over-express human NKp30. Live NK92mi/NKp30 expressing cells were seeded in 96-well plates and were incubated with a serial dilution of anti-NKp30 antibodies. Goat anti-Human IgG was used as secondary antibody to detect antibody binding to the cell surface. EC₅₀ values for dose-dependent binding to human native NKp30 were determined by fitting the dose-response data to the four-parameter logistic model with GraphPad Prism™.

B1: BGA1833/IgG1 (antibody)
heavy: not shown
light: QIQLTQSPSSLSASVGDRVTITCKASQDVSTAVAWYQQKPGKAPKLLIYAASYRHIGVPSRFSGSGSGTDFTLTISSLQPEDFATYYCQQHYSNPFTFGGGTKVEIKRTVAAPSVFIFPPSDEQLKSGTASVVCLLNNFYPREAKVQWKVDNALQSGNSQESVTEQDSKDSTYSLSSTLTLSKADYEKHKVYACEVTHQGLSSPVTKSFNRGEC
notes: BGA1833 with wild-type human IgG1 heavy chain; also called BGA1833 with wt IgG1
A word on the IC50: it is the concentration at which inhibition is half-maximal. As for B1, the IC50 with NKp30-mIgG2a was found to be 0.144 mg/L.

B2: mu183 (antibody, V domains shown)
VH: QVQLQQPGSVLVRPGASVKLSCKASGYTFTSSWMHWAKQRPGQGLEWIGEIHPNRDNTNYNEKFKGKATLTVDTSSSTAYVDLSSLTSEDSAVYYCARSYYDYGGAYFDSWGQGTTLTVSS
VL: QIVLTQSHKFMSTSVGDRVSITCKASQDVSTAVAWYQQKPGQSPKLLIYAASYRHIGVPDRFTGSGSGTDFTFTISSVQAEDLAVYYCQQHYSNPFTFGSGTKLEIK
notes: Murine hybridoma antibody, purified on Protein A; also called murine anti-NKp30 antibody mu183
In general, EC50 refers to the concentration needed to bring the measured effect to its halfway point. The Kd is the concentration at which binding is half-saturated. Low readings indicate tighter binding, high ones weaker binding. By koff is commonly meant the rate constant with which the complex falls apart. Usually kon stands for the rate constant with which the complex forms. The low end stands for slow association, the high end for fast association. The molecule B2 came in with an EC50 in experiment [1] of 0.263 mg/L. In the experiment with his-tagged human NKp30 [2], this molecule gave a Kd of 0.132 nM, a koff of 0.00021 s⁻¹ and a kon of 1.59e+06 M⁻¹ s⁻¹. Further, in the experiment with NKp30-mIgG2a, the IC50 was found to be 0.169 mg/L.

B3: ch183 (antibody, V domains shown)
VH: QVQLQQPGSVLVRPGASVKLSCKASGYTFTSSWMHWAKQRPGQGLEWIGEIHPNRDNTNYNEKFKGKATLTVDTSSSTAYVDLSSLTSEDSAVYYCARSYYDYGGAYFDSWGQGTTLTVSS
VL: QIVLTQSHKFMSTSVGDRVSITCKASQDVSTAVAWYQQKPGQSPKLLIYAASYRHIGVPDRFTGSGSGTDFTFTISSVQAEDLAVYYCQQHYSNPFTFGSGTKLEIK
notes: not shown: human immunoglobulin kappa constant region
Turning to B3, in the experiment with his-tagged human NKp30 [3], the Kd stood at 0.143 nM, the koff was found to be 0.000318 s⁻¹ and the kon was found to be 2.22e+06 M⁻¹ s⁻¹. Also, in experiment [4], the EC50 is 1.55 nM.

B4: BGA1832 (antibody, human IgG1, kappa, V domains shown)
VH: QVQLVQSGAEVKKPGASVKVSCKASGYTFTSSYMHWVRQAPGQGLEWMGEIHPNRDNTNYNEKFKGRVTMTVDTSTSTVYMELSSLRSEDTAVYYCARSYYDYGGAYFDAWGQGTLVTVSS
VL: DIQLTQSPSSLSASVGDRVTITCKASQDVSTAVAWYQQKPGKAPKLLIYAASYRHIGVPSRFSGSGSGTDFTLTISSLQPEDFATYYCQQHYSNPFTFGGGTKVEIKR
In the experiment with his-tagged human NKp30 [3], B4 returned a Kd of 0.213 nM, a koff of 0.000331 s⁻¹ and a kon of 1.55e+06 M⁻¹ s⁻¹.

B5: BGA1831 (antibody, human IgG1, kappa, V domains shown)
VH: QVQLVQSGAVVVKPGASVKVSCKASGYTFTSSWMHWARQAPGQGLEWIGEIHPNRDNTNYNEKFKGRATLTVDTSTSTAYMELSSLRSEDTAVYYCARSYYDYGGAYFDSWGQGTLVTVSS
VL: QIVLTQSPSSLSASVGDRVTITCKASQDVSTAVAWYQQKPGKSPKLLIYAASYRHIGVPSRFSGSGSGTDFTFTISSLQPEDFATYYCQQHYSNPFTFGGGTKVEIKR
notes: also called humanized anti-NKp30 Ab BGA1831
In the experiment with his-tagged human NKp30 [3], B5 came in with a Kd of 0.198 nM, a koff of 0.000377 s⁻¹ and a kon of 1.91e+06 M⁻¹ s⁻¹. Moreover, a half-maximal response in experiment [4] (EC50) required 1.26 nM.
